The assay has as its target full-length APP770 tagged with V5 (UniProt P05067-1 18-770). In words: cell-based or functional assay.

This is an account of results in paper PMC6201590, “Fibronectin type III domain-containing protein 5 interacts with APP and decreases amyloid β production in Alzheimer’s disease” (Molecular Brain, 2018).

Chain of full-length APP770 tagged with V5 (P05067 18-770): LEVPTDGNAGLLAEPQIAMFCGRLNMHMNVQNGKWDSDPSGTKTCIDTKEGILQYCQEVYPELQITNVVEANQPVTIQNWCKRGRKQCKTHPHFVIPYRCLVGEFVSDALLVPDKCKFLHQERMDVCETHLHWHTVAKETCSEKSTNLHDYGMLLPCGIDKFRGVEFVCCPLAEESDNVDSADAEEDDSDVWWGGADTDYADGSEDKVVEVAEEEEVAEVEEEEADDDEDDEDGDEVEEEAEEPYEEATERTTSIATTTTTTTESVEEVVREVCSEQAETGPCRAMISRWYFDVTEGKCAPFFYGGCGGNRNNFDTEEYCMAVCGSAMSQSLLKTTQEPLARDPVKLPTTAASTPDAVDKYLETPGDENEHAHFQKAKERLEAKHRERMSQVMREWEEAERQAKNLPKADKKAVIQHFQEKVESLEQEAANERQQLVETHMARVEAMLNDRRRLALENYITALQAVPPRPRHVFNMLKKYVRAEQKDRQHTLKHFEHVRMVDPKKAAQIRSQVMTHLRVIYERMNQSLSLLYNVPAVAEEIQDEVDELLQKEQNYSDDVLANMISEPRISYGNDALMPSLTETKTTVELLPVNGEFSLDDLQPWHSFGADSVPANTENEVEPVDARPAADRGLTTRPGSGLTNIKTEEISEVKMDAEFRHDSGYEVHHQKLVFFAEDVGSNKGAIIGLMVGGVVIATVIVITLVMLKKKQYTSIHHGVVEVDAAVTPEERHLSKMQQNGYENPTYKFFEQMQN

B1: Fibronectin type III domain-containing protein 5 tagged with HA at the C-terminus (natural protein, mouse, UniProt Q8K4Z2 60-240, looked up)
chain: DSPSAPVNVTVRHLKANSAVVSWDVLEDEVVIGFAISQQKKDVRMLRFIQEVNTTTRSCALWDLEEDTEYIVHVQAISIQGQSPASEPVLFKTPREAEKMASKNKDEVTMKEMGRNQQLRTGEVLIIVVVLFMWAGVIALFCRQYDIIKDNEPNNNKEKTKSASETSTPEHQGGGLLRSKI
As for B1, the “Aβ40 and Aβ42 secreted into the medium (ELISA) of HEK293 cells transfected with APP770-V5 and FNDC5-HA, with Aβ1–16 peptide treatment against without it” value was roughly 1.4 fold.
